What was measured:
[1] = molecular target: T1, 5HT3a (Homo sapiens, UniProt P46098); assay: Ion channel panel (IonWorks Barracuda): 5HT3a; format: cell-based
T1 construct: host or cells: HEK293 or CHO
T1 sequence (P46098 whole entry, looked up): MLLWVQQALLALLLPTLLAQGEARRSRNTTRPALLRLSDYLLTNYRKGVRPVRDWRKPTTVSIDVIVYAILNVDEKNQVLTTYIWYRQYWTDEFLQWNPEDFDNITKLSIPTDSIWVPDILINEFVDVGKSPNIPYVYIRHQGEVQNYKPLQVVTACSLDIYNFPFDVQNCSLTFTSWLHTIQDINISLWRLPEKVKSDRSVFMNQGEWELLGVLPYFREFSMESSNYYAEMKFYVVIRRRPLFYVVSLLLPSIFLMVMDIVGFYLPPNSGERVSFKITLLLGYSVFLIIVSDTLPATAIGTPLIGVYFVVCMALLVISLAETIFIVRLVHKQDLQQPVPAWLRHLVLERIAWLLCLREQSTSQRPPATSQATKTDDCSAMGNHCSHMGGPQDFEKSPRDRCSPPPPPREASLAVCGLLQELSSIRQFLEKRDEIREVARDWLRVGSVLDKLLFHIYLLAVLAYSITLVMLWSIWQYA
Summary of the method: (§1)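 Transfected HEK293 or CHO cells were exposed for at least 5 min to peptides at 200 nM and 20 μM final, tested in duplicate, in HEPES-buffered physiological saline. Activation was taken as peptide-plus-agonist current over control current ×100, and inhibition as 1 minus that ratio ×100. Each channel's control was its own reference compound.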

[2] = molecular target: T2, α3β4 (Homo sapiens, UniProt P30926+P32297); assay: Ion channel panel (IonWorks Barracuda): α3β4; format: cell-based; conditions: 100% = no change, <100% = inhibition
T2 construct: host or cells: HEK293 or CHO
Summary of the method: as §1

[3] = molecular target: T3, α4β2 (Homo sapiens, UniProt P17787+P43681); assay: Ion channel panel (IonWorks Barracuda): α4β2; format: cell-based; conditions: 100% = no change, <100% = inhibition
T3 construct: host or cells: HEK293 or CHO
Summary of the method: as §1

[4] = molecular target: T4, Cav2.1 (Homo sapiens, UniProt O00555); assay: cell-based; conditions: 100% = no change, <100% = inhibition
T4 construct: host or cells: HEK293 or CHO
Summary of the method: as §1

[5] = molecular target: T5, Cav2.2 (Homo sapiens, UniProt Q00975); assay: cell-based; conditions: 100% = no change, <100% = inhibition
T5 construct: host or cells: HEK293 or CHO
Summary of the method: as §1

[6] = molecular target: T6, Kv2.1 (Homo sapiens, UniProt Q14721); assay: cell-based; conditions: 100% = no change, <100% = inhibition
T6 construct: host or cells: HEK293 or CHO
Summary of the method: as §1

[7] = test system: GABA; assay: Ion channel panel (IonWorks Barracuda): GABA; format: cell-based; conditions: 100% = no change, <100% = inhibition
Summary of the method: as §1

[8] = molecular target: Nav1.5 (Homo sapiens, UniProt Q14524); assay: in vitro; conditions: 100% = no change; for Activity of Nav1.5 with peptide, expressed as a percentage of the reference compound: peptide at 0.2 μM; for Activity of Nav1.5 with peptide (percentage of the reference compound): peptide at 20 μM
Summary of the method: as §1

[9] = molecular target: hERG (Homo sapiens, UniProt Q12809); assay: in vitro; conditions: 100% = no change, <100% = inhibition
Summary of the method: as §1

[10] = molecular target: T7, Kir2.1 (Homo sapiens, UniProt P63252); assay: Ion channel panel (IonWorks Barracuda): Kir2.1; format: cell-based; conditions: 100% = no change, <100% = inhibition
T7 construct: host or cells: HEK293 or CHO
Summary of the method: as §1

[11] = molecular target: T8, Kv1.1 (Homo sapiens, UniProt Q09470); assay: cell-based; format: cell-based; conditions: 100% = no change, <100% = inhibition
T8 construct: host or cells: HEK293 or CHO
Summary of the method: as §1

[12] = molecular target: T9, Kv1.2 (Homo sapiens, UniProt P16389); assay: cell-based; format: cell-based; conditions: 100% = no change, <100% = inhibition
T9 construct: host or cells: HEK293 or CHO
Summary of the method: as §1

[13] = molecular target: T10, Kv1.3 (Homo sapiens, UniProt P22001); assay: cell-based; format: cell-based; conditions: 100% = no change, <100% = inhibition
T10 construct: host or cells: HEK293 or CHO
Summary of the method: as §1

[14] = molecular target: T11, Nav1.7 (Homo sapiens, UniProt Q15858); assay: cell-based; format: cell-based; conditions: 100% = no change; for Activity of Nav1.7 with peptide, expressed as a percentage of the reference compound: peptide at 0.2 μM; for Activity of Nav1.7 with peptide (percentage of the reference compound): peptide at 20 μM
T11 construct: host or cells: HEK293 or CHO

[15] = molecular target: T12, NR2A (Homo sapiens, UniProt Q12879); assay: Ion channel panel (IonWorks Barracuda): NR2A; format: cell-based; conditions: 100% = no change, <100% = inhibition
T12 construct: host or cells: HEK293 or CHO
Summary of the method: as §1

[16] = molecular target: T13, NR2B (Homo sapiens, UniProt Q13224); assay: Ion channel panel (IonWorks Barracuda): NR2B; format: cell-based; conditions: 100% = no change, <100% = inhibition
T13 construct: host or cells: HEK293 or CHO
Summary of the method: as §1

[17] = molecular target: T14, TRPA1 (Homo sapiens, UniProt O75762); assay: Ion channel panel (IonWorks Barracuda): TRPA1; format: cell-based; conditions: 100% = no change, <100% = inhibition
T14 construct: host or cells: HEK293 or CHO
Summary of the method: as §1

[18] = molecular target: T15, TRPV1 (Homo sapiens, UniProt Q8NER1); assay: Ion channel panel (IonWorks Barracuda): TRPV1; format: cell-based; conditions: 100% = no change, <100% = inhibition
T15 construct: host or cells: HEK293 or CHO
Summary of the method: as §1

[19] = first of two Nav1.5 columns (probably TP1)
[20] = second of two Nav1.5 columns (probably TP2)
[21] = first of two Nav1.7 columns (probably TP1)
[22] = second of two Nav1.7 columns (probably TP2)

T11 sequence (Q15858 whole entry): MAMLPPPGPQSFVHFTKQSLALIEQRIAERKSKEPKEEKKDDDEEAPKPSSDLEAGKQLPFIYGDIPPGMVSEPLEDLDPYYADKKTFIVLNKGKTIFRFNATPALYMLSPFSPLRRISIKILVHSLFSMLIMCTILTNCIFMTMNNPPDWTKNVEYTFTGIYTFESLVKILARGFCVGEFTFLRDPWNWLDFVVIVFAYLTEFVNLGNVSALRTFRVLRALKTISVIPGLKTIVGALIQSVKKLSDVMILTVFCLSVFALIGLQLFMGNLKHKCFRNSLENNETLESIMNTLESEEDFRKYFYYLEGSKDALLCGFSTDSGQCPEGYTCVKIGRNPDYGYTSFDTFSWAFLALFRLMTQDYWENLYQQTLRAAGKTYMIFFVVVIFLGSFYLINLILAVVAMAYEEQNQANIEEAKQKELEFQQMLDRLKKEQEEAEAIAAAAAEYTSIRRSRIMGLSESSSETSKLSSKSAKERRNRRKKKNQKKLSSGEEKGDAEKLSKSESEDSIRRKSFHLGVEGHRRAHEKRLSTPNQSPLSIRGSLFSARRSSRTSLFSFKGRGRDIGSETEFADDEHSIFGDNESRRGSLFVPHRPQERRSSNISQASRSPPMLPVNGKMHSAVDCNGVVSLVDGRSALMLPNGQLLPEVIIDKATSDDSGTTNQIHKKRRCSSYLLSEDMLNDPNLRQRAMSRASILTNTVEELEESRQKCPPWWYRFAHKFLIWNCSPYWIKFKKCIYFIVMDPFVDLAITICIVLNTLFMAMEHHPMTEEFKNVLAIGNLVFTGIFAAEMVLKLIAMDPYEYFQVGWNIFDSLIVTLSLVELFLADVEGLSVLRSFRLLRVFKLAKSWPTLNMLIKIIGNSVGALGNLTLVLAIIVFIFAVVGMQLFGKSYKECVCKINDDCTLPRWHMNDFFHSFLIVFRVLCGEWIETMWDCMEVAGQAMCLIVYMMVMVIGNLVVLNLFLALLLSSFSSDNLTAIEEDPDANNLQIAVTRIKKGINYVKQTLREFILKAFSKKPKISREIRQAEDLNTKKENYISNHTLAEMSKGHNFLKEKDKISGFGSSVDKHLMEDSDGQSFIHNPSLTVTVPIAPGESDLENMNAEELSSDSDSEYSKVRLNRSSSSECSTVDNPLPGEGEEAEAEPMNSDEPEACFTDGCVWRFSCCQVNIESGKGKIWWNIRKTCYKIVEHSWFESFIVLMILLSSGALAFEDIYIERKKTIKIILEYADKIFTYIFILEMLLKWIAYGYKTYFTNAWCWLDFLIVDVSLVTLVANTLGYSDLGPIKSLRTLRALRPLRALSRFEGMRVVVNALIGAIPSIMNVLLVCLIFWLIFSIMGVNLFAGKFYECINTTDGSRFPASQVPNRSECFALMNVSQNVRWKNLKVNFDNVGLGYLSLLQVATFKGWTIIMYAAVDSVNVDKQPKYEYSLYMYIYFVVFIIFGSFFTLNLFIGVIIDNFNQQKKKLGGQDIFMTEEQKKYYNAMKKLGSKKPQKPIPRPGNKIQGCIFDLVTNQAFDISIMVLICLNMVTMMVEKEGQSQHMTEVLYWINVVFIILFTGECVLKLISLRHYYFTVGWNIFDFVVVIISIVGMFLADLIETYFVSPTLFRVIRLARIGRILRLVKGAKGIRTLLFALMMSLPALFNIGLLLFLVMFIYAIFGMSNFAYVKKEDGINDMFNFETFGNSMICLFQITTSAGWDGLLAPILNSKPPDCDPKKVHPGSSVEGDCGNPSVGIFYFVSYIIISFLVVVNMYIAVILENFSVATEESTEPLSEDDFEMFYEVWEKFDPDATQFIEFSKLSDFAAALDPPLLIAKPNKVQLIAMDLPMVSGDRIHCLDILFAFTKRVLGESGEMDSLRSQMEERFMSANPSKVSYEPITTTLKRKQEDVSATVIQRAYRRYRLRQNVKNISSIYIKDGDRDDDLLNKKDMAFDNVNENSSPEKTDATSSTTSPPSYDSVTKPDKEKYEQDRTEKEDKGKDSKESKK
Sequence of Nav1.5 (Q14524 whole entry): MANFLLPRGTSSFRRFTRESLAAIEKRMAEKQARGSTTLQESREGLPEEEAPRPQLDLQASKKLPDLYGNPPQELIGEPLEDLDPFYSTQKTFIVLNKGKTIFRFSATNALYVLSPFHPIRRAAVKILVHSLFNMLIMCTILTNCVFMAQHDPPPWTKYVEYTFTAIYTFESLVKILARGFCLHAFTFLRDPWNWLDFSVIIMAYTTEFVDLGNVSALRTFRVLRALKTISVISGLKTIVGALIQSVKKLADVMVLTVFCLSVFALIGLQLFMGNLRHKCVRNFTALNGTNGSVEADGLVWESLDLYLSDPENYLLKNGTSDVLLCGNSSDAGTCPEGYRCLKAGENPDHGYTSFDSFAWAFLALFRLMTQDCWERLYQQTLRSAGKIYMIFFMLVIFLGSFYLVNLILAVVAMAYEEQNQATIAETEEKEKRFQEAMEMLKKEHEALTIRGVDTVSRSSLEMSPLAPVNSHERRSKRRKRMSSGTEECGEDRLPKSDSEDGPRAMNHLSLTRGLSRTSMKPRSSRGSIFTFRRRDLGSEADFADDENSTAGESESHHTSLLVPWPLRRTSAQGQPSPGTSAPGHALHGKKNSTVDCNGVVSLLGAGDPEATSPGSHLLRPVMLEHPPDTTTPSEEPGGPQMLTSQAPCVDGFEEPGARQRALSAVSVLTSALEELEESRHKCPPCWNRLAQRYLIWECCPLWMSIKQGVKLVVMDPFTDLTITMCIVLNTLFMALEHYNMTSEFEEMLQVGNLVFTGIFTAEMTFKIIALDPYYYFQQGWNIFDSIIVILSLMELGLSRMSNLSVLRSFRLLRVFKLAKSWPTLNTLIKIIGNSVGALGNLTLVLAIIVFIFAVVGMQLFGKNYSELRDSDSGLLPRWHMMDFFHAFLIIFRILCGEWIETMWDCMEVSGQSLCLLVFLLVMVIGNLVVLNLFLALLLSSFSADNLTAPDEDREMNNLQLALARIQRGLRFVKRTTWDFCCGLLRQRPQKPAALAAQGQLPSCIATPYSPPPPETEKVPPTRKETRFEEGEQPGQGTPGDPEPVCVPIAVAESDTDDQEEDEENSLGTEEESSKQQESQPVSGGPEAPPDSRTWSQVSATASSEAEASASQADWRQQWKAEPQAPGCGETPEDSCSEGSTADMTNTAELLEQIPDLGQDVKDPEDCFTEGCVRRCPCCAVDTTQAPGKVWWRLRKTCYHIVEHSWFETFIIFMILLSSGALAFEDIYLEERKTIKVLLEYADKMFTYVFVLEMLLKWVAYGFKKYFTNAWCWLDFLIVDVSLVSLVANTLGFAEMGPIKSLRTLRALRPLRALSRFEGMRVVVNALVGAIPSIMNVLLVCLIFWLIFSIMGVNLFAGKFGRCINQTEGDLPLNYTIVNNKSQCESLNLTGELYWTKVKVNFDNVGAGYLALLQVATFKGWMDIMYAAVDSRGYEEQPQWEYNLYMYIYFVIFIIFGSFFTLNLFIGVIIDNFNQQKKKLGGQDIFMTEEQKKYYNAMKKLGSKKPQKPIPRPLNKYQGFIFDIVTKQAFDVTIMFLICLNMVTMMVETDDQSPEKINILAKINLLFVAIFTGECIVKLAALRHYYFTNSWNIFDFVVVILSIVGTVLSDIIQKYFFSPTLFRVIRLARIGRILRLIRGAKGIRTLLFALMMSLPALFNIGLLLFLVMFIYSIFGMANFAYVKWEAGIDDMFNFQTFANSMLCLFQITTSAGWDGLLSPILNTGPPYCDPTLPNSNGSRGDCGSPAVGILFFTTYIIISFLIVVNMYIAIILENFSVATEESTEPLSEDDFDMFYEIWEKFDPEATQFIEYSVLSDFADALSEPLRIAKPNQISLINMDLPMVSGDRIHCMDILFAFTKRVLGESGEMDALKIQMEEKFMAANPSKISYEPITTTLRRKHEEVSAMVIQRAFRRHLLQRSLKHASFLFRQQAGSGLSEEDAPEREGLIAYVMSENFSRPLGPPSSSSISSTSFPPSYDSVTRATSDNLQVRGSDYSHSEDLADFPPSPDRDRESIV
T2 sequence (P30926 22-498): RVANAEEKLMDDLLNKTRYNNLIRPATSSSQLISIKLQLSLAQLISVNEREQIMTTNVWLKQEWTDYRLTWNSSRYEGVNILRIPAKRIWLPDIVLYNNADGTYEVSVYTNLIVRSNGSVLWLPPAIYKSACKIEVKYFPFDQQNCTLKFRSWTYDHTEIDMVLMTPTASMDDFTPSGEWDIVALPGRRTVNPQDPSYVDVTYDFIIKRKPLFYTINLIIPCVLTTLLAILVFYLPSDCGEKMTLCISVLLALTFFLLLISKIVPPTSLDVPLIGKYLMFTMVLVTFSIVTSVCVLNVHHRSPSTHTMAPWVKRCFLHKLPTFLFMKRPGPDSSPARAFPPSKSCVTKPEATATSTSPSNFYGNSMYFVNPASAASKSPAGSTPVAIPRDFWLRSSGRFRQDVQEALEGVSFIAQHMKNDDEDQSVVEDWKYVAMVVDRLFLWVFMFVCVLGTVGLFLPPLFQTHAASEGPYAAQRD
T2 sequence (P32297 32-505): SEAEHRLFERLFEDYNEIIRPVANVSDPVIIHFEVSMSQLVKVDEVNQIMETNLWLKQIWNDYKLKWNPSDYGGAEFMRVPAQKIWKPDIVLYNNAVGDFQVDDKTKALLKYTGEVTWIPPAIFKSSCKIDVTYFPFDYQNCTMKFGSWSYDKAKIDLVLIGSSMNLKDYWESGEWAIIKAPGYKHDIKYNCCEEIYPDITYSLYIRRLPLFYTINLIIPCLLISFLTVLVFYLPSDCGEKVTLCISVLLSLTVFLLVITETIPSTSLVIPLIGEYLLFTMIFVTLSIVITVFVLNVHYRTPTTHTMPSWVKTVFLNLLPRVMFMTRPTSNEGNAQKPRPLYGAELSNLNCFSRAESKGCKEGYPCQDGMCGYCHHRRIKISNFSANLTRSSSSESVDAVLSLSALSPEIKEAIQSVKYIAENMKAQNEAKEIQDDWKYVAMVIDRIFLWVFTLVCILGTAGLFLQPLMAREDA

For “9 (GSGCFGYKCDYYKGCCSGYVCSPTWKWCVRPGPGR) [compound 9]”, which “Activity of 5HT3a with peptide (percentage of the reference compound)” value [1] is on record?
The value was 73%.

And the “Activity of 5HT3a with peptide, expressed as a percentage of the reference compound” value [1]?
Its value is 107%.

And the “Activity of a3b4 with peptide, expressed as a percentage of the reference compound” value ([2]; peptide at 0.2 μM)?
Its value is 105%.

What about the “Activity of a3b4 with peptide (percentage of the reference compound)” value ([2]; peptide at 20 μM) of the same substance?
Its value is 103%.

And the “Activity of a4b2 with peptide, expressed as a percentage of the reference compound” value ([3]; peptide at 0.2 μM)?
Its value is 96%.

And the “Activity of a4b2 with peptide (percentage of the reference compound)” value ([3]; peptide at 20 μM)?
The value was 81%.

And the “Activity of Cav2.1 with peptide, expressed as a percentage of the reference compound” value ([4]; peptide at 0.2 μM)?
The value was 111%.

What about the “Activity of Cav2.1 with peptide (percentage of the reference compound)” value ([4]; peptide at 20 μM) of the same substance?
Its value is 108%.

And the “Activity of Cav2.2 with peptide, expressed as a percentage of the reference compound” value ([5]; peptide at 0.2 μM)?
The value was 109%.

And the “Activity of Cav2.2 with peptide (percentage of the reference compound)” value ([5]; peptide at 20 μM)?
The value was 102%.

And the “Activity of Kv2.1 with peptide, expressed as a percentage of the reference compound” value ([6]; peptide at 0.2 μM)?
The value was 112%.

And the “Activity of Kv2.1 with peptide (percentage of the reference compound)” value ([6]; peptide at 20 μM)?
The value was 99%.

What about the “Activity of GABA with peptide, expressed as a percentage of the reference compound” value ([7]; peptide at 0.2 μM) of the same substance?
Its value is 99%.

And the “Activity of GABA with peptide (percentage of the reference compound)” value ([7]; peptide at 20 μM)?
Its value is 98%.

And the “Activity of Nav1.5 with peptide, expressed as a percentage of the reference compound” value [8, 19]?
The value was 104%.

And the “Activity of Nav1.5 with peptide, expressed as a percentage of the reference compound” value [8, 20]?
Its value is 103%.

What about the “Activity of Nav1.5 with peptide (percentage of the reference compound)” value [8, 19] of the same substance?
Its value is 109%.

And the “Activity of Nav1.5 with peptide (percentage of the reference compound)” value [8, 20]?
Its value is 110%.

And the “Activity of hERG with peptide, expressed as a percentage of the reference compound” value ([9]; peptide at 0.2 μM)?
The value was 104%.

And the “Activity of hERG with peptide (percentage of the reference compound)” value ([9]; peptide at 20 μM)?
Its value is 98%.

And the “Activity of Kir2.1 with peptide, expressed as a percentage of the reference compound” value ([10]; peptide at 0.2 μM)?
Its value is 105%.

And the “Activity of Kir2.1 with peptide (percentage of the reference compound)” value ([10]; peptide at 20 μM)?
The value was 103%.

What about the “Activity of Kv1.1 with peptide, expressed as a percentage of the reference compound” value ([11]; peptide at 0.2 μM) of the same substance?
The value was 103%.

And the “Activity of Kv1.1 with peptide (percentage of the reference compound)” value ([11]; peptide at 20 μM)?
The value was 97%.

And the “Activity of Kv1.2 with peptide, expressed as a percentage of the reference compound” value ([12]; peptide at 0.2 μM)?
Its value is 120%.

What about the “Activity of Kv1.2 with peptide (percentage of the reference compound)” value ([12]; peptide at 20 μM) of the same substance?
The value was 104%.

What about the “Activity of Kv1.3 with peptide, expressed as a percentage of the reference compound” value ([13]; peptide at 0.2 μM) of the same substance?
Its value is 107%.

What about the “Activity of Kv1.3 with peptide (percentage of the reference compound)” value ([13]; peptide at 20 μM) of the same substance?
Its value is 89%.

And the “Activity of Nav1.7 with peptide, expressed as a percentage of the reference compound” value [14, 21]?
Its value is 108%.

And the “Activity of Nav1.7 with peptide, expressed as a percentage of the reference compound” value [14, 22]?
Its value is 110%.

And the “Activity of Nav1.7 with peptide (percentage of the reference compound)” value [14, 21]?
The value was 94%.

What about the “Activity of Nav1.7 with peptide (percentage of the reference compound)” value [14, 22] of the same substance?
The value was 114%.

And the “Activity of NR2A with peptide, expressed as a percentage of the reference compound” value ([15]; peptide at 0.2 μM)?
The value was 89%.

What about the “Activity of NR2A with peptide (percentage of the reference compound)” value ([15]; peptide at 20 μM) of the same substance?
Its value is 87%.

And the “Activity of NR2B with peptide, expressed as a percentage of the reference compound” value ([16]; peptide at 0.2 μM)?
The value was 77%.

What about the “Activity of NR2B with peptide (percentage of the reference compound)” value ([16]; peptide at 20 μM) of the same substance?
Its value is 85%.

What about the “Activity of TRPA1 with peptide, expressed as a percentage of the reference compound” value ([17]; peptide at 0.2 μM) of the same substance?
The value was 131%.

What about the “Activity of TRPA1 with peptide (percentage of the reference compound)” value ([17]; peptide at 20 μM) of the same substance?
The value was 112%.

And the “Activity of TRPV1 with peptide, expressed as a percentage of the reference compound” value ([18]; peptide at 0.2 μM)?
The value was 112%.

What about the “Activity of TRPV1 with peptide (percentage of the reference compound)” value ([18]; peptide at 20 μM) of the same substance?
The value was 79%.

From patent publication US20200262877A1, “ION CHANNEL-BINDING PEPTIDES AND METHODS OF USE THEREOF” (priority 2017, published 2020)
